# Results published in PMC9569350, “Antarctic aldehyde dehydrogenase from Flavobacterium PL002 as a potent catalyst for acetaldehyde determination in wine” (Scientific Reports, 2022).
# Assays:
# CC=O = experiment: purified protein; settings: 10 mM NAD+ (saturating), 100 mM potassium phosphate pH 7.5, 25 °C, free enzyme
# [1] = test system: NC(=O)c1ccc[n+]([C@@H]2O[C@H](COP(=O)(O)OP(=O)(O)OC[C@H]3O[C@@H](n4cnc5c(N)ncnc54)[C@H](O)[C@@H]3O)[C@@H](O)[C@H]2O)c1; experiment: purified protein; settings: 10 mM acetaldehyde (saturating), 100 mM potassium phosphate pH 7.5, 25 °C, free enzyme, varied: cofactor
substance,measurement,setting,value
S2-ALDH (Flavobacterium sp. PL002),Km,CC=O,1880 ± 700 µM
same,Vmax,CC=O,2.64 µmol/min/mg
same,kcat,CC=O,0.432 ± 0.025 s⁻¹
same,kcat/Km,CC=O,230 ± 85.2 M⁻¹ s⁻¹
same,Km,[1],2870 ± 480 µM
same,Vmax,[1],0.74 µmol/min/mg
same,kcat,[1],0.121 ± 0.026 s⁻¹
same,kcat/Km,[1],42.2 ± 7.05 M⁻¹ s⁻¹
